Measured values: patent publication EP4242225A1 (Consejo Superior De Investigaciones Científicas, dated 2023)
Like-named read-outs stand apart in the source and are kept apart here.

Columns and labels:
[1] = molecular target: S protein of SARS-CoV-2 on pseudotyped retroviral particles (Spp) (SARS-CoV-2, UniProt P0DTC2 14-1273); assay: cell-based or functional assay
[2] = molecular target: T1, RBD-FH, monomeric RBD (332-534) with a FLAG peptide and an 8xHis-tag at the C-terminus (SARS-CoV-2, UniProt P0DTC2 332-534)
[3] = molecular target: T1, RBD-FH, monomeric RBD (332-534) with a …; remark: listed apart in the source
[4] = molecular target: T2, monomeric RBD of SARS-CoV-2 S (WA1) (SARS-CoV-2, UniProt P0DTC2 332-534); assay: ELISA, hcAb dilutions on plate-bound monomeric RBD
T2 construct: domain: RBD

[5] = molecular target: T3, RBD-Fc, Wuhan strain (WA1) (SARS-CoV-2; human, UniProt P0DTC2 332-534); assay: ELISA, biotin-labeled bispecific hcAb on plate-bound RBD-Fc
T3 construct: range 332-534; also called WA1 RBD; WA1 RBD-Fc

B1: hcAb 2.20 (Fc fusion)
heavy: QVQLVESGGGSVQAGGSLRLSCAASGYTYNNYYMGWFRQAPGKEREGVAAINSDGLDTYVADSVKGRFTISRDNAKDTVHLQMNSLKPEDTAIYSCATGRTVYYSGYDFRLSVDDYWGQGTQVTVSS
notes: also called 2.20Fc; 2.20 hcAb
inhibition of Spp entry into Vero-E6 cells (luciferase, 48 h.p.i.) [1]: ≥ 90% | Kd [2]: 0.21 nM | koff [2]: 0.000233 s⁻¹ | kon [2]: 1.09e+06 M⁻¹ s⁻¹

B2: Nb 2.20 (VHH)
VHH: QVQLVESGGGSVQAGGSLRLSCAASGYTYNNYYMGWFRQAPGKEREGVAAINSDGLDTYVADSVKGRFTISRDNAKDTVHLQMNSLKPEDTAIYSCATGRTVYYSGYDFRLSVDDYWGQGTQVTVSS
Kd [3]: 0.77 nM | koff [3]: 0.00101 s⁻¹ | kon [3]: 1.3e+06 M⁻¹ s⁻¹

B3: hcAb 1.26 (Fc fusion)
heavy: QVQLVESGGGLVQAGGSLRLSCAATGYTWSSVCMGWFRQAPGKEREGVAGIPSGRNRPYYADSVKGRFTISQDNAKNAVFLLMNSLKPEDTAIYYCAPCSAPHDPEYNYWGQGTQVTVSS
inhibition of Spp entry into Vero-E6 cells (luciferase, 48 h.p.i.) [1]: ≥ 90% | Kd [2]: 0.08 nM | koff [2]: 0.000148 s⁻¹ | kon [2]: 1.76e+06 M⁻¹ s⁻¹ | EC50 [4]: 1 nM

B4: Nb 1.26 (VHH)
VHH: QVQLVESGGGLVQAGGSLRLSCAATGYTWSSVCMGWFRQAPGKEREGVAGIPSGRNRPYYADSVKGRFTISQDNAKNAVFLLMNSLKPEDTAIYYCAPCSAPHDPEYNYWGQGTQVTVSS
Kd [3]: 0.26 nM | koff [3]: 0.000624 s⁻¹ | kon [3]: 2.44e+06 M⁻¹ s⁻¹

B5: hcAb 2.1 (Fc fusion)
heavy: QVQLVESGGGSVQAGGSLRLSCAAFGATISSAHMGWFRQAPGKEREGVAFRYTDGSSTYYTTSVRGRFTISQDNAKNTVYLQMNSLKPEDTAMYYCASNPSWGRLVGGQYNNWGQGTQITVSS
notes: also called 2.1Fc
inhibition of Spp entry into Vero-E6 cells (luciferase, 48 h.p.i.) [1]: > 90% | Kd [2]: 0.36 nM | koff [2]: 0.000281 s⁻¹ | kon [2]: 771000 M⁻¹ s⁻¹

B6: Nb 2.1 (VHH)
VHH: QVQLVESGGGSVQAGGSLRLSCAAFGATISSAHMGWFRQAPGKEREGVAFRYTDGSSTYYTTSVRGRFTISQDNAKNTVYLQMNSLKPEDTAMYYCASNPSWGRLVGGQYNNWGQGTQITVSS
Kd [3]: 1.74 nM | koff [3]: 0.00233 s⁻¹ | kon [3]: 1.34e+06 M⁻¹ s⁻¹

B7: bispecific hcAb 1.29-1.10 (bispecific antibody)
heavy: QVQLVESGGGSVQAGGSLRLSCAASGYTINTDAVAWFRQAPGKGDERVAVIYTGSGNTNYADSVKGRFTISQDNAKNTVYLQMNSLKPEDTALYYCASGYYGASGYDFNNWGQGTQVTVSSGGGGSGGGGSGGGGSQVQLVESGGGSVQAGGSLRLSCAASGYTYSTCRKGWYRQAPGKERELVASITADGATYYLDSVKGRLTISQDNAKNTVYLQMNSLKPEDTAVYYCAASVKDFTCTFNSWGQGTQVTVSS
binding result [5]: binds

B8: hcAb 1.29 (Fc fusion)
heavy: QVQLVESGGGSVQAGGSLRLSCAASGYTINTDAVAWFRQAPGKGDERVAVIYTGSGNTNYADSVKGRFTISQDNAKNTVYLQMNSLKPEDTALYYCASGYYGASGYDFNNWGQGTQVTVSS
inhibition of Spp entry into Vero-E6 cells (luciferase, 48 h.p.i.) [1]: ≥ 90% | Kd [2]: 0.63 nM | koff [2]: 0.000221 s⁻¹ | kon [2]: 353000 M⁻¹ s⁻¹ | EC50 [4]: 35 nM

B9: Nb 1.29 (VHH)
VHH: QVQLVESGGGSVQAGGSLRLSCAASGYTINTDAVAWFRQAPGKGDERVAVIYTGSGNTNYADSVKGRFTISQDNAKNTVYLQMNSLKPEDTALYYCASGYYGASGYDFNNWGQGTQVTVSS
Kd [3]: 12.9 nM | koff [3]: 0.00614 s⁻¹ | kon [3]: 476000 M⁻¹ s⁻¹

B10: hcAb 2.15 (Fc fusion)
heavy: QVQLVESGGGSVQAGGSLKLSCAASGYASWARKCIGWFRQAPGQEREGVAAIFDFDGSTYYSDSVKGRFTISGDNAKNTVSLQMNSLLPKDTAVYYCTVAFGTCDNWYRGRGDYWGQGTQVTVSS
inhibition of Spp entry into Vero-E6 cells (luciferase, 48 h.p.i.) [1]: > 90%

B11: hcAb 1.10 (Fc fusion)
heavy: QVQLVESGGGSVQAGGSLRLSCAASGYTYSTCRKGWYRQAPGKERELVASITADGATYYLDSVKGRLTISQDNAKNTVYLQMNSLKPEDTAVYYCAASVKDFTCTFNSWGQGTQVTVSS
inhibition of Spp entry into Vero-E6 cells (luciferase, 48 h.p.i.) [1]: > 90%

B12: Nb 2.11 (VHH)
VHH: QVQLVESGGGSVQAGGSLRLSCAASGDASNRKCVSWFRRAPGKEREGVALIFPVGSSTAYADSVKGRFTISQDSAKDTVYLQMNNLKPEDSGTYYCAAVSWGGRCNLETQTVTFWGQGTQVTVSS
Kd [3]: 1.72 nM | koff [3]: 0.0054 s⁻¹ | kon [3]: 3.15e+06 M⁻¹ s⁻¹

B13: hcAb 2.11 (Fc fusion)
heavy: QVQLVESGGGSVQAGGSLRLSCAASGDASNRKCVSWFRRAPGKEREGVALIFPVGSSTAYADSVKGRFTISQDSAKDTVYLQMNNLKPEDSGTYYCAAVSWGGRCNLETQTVTFWGQGTQVTVSS
notes: also called 2.11Fc
Kd [2]: 0.16 nM | koff [2]: 0.0003 s⁻¹ | kon [2]: 1.82e+06 M⁻¹ s⁻¹

B14: hcAb 1.16 (Fc fusion)
heavy: QVQLVESGGGSVQAGGSLRLSCAASGNTSKRKCVGWFRRAPGKEREGVTLIYTVGGSTVYADSVKGRFTISQDNAKDTVYLQMNSLKPEDSAMYYCAAESWGRQCNLETHRFTFWGQGTQVTVSS
notes: also called 1.16Fc
Kd [2]: 0.25 nM | koff [2]: 0.000438 s⁻¹ | kon [2]: 1.72e+06 M⁻¹ s⁻¹

B15: Nb 1.16 (VHH)
VHH: QVQLVESGGGSVQAGGSLRLSCAASGNTSKRKCVGWFRRAPGKEREGVTLIYTVGGSTVYADSVKGRFTISQDNAKDTVYLQMNSLKPEDSAMYYCAAESWGRQCNLETHRFTFWGQGTQVTVSS
Kd [3]: 3.59 nM | koff [3]: 0.00705 s⁻¹ | kon [3]: 1.96e+06 M⁻¹ s⁻¹
